Where “and” joins values, the source holds several entries; their conditions need not be identical. Equal values may be shown once. Non-standard residues stand in square brackets, D forms with d. *: point of attachment. (PEG)2 40 kDa = branched PEG of 40 kDa linked via the Cys side-chain thiol (code C2 = Cys(PEG)2 40 kDa); Cholesteroyl = cholesterol linked to a cysteine residue via the side-chain thiol; Succinimide(1-Et,3-yl) = CCN1C(=O)CC(*)C1=O; Palmitoyl = CCCCCCCCCCCCCCCC(=O)*
T1: human NMUR1 (human, UniProt Q9HB89 1-426)
T1 sequence (looked up): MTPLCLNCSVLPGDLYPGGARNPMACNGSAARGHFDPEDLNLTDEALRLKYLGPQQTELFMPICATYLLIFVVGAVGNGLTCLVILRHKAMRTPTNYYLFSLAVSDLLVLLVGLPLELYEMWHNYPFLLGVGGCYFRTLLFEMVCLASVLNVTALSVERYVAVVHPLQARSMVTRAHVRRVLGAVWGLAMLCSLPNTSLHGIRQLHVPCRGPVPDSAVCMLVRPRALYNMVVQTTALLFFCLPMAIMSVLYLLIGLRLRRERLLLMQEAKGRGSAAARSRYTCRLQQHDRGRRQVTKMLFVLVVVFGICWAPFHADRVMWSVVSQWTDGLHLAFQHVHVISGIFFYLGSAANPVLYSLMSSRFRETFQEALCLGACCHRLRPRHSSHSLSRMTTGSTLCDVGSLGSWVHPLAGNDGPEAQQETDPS

T2: mouse NMUR1-ATG (mouse, UniProt O55040 1-428)
T2 sequence (looked up): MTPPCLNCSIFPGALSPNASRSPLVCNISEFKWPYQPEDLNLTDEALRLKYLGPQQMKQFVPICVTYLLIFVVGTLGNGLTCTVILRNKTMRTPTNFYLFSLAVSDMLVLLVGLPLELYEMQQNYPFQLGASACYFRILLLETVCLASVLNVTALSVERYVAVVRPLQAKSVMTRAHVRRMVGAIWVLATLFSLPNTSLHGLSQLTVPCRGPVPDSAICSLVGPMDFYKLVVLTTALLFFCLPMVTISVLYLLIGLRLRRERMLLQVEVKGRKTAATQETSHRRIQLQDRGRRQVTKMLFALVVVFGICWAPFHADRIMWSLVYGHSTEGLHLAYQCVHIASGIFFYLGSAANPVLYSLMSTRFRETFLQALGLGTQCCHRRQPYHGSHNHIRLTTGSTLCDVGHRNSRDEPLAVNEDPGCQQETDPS

T3: mouse NMUR1-CTG (mouse, UniProt O55040 1-428)
T3 sequence (looked up): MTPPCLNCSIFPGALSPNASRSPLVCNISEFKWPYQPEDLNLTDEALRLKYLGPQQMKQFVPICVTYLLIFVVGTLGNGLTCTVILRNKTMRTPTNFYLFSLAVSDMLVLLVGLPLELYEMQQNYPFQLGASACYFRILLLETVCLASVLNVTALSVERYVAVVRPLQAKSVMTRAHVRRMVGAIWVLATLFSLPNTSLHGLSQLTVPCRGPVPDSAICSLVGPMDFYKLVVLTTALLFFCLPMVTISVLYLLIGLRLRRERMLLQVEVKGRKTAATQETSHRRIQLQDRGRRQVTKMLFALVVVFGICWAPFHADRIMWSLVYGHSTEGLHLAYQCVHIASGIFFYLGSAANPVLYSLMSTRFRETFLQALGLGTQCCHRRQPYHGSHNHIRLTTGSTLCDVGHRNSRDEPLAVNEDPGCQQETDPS

T4: rat NMUR1-ATG (rat, UniProt Q9JJI5 1-425)
T4 sequence (looked up): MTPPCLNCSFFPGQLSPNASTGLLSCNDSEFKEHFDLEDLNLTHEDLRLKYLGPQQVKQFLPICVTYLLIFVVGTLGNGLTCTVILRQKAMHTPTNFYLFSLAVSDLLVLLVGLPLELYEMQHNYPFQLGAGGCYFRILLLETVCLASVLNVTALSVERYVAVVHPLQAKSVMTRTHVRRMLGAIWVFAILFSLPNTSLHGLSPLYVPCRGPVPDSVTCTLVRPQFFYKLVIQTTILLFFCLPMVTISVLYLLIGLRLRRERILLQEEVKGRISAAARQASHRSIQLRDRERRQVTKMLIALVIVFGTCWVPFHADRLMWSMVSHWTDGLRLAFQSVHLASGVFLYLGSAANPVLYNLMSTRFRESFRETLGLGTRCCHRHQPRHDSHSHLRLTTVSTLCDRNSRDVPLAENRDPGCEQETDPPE

T5: rat NMUR1-TTG (rat, UniProt Q9JJI5 1-425)
T5 sequence (looked up): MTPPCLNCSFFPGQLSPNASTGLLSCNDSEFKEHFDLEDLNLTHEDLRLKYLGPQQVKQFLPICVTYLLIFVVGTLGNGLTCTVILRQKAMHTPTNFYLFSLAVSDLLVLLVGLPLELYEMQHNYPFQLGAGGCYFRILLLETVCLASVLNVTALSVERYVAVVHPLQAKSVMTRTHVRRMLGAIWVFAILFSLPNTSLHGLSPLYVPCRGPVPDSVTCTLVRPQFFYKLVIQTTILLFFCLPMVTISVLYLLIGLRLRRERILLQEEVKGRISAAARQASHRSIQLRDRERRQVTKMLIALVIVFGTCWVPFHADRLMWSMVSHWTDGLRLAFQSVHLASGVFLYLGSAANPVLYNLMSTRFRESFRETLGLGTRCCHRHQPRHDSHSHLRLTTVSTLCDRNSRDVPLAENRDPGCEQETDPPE


Assays:
Experiment in all cases: cell-based or functional assay
human NMUR1 = target: T1, human NMUR1
human NMUR2 = human NMUR2 (human, UniProt Q9GZQ4 1-415)
Sequence of human NMUR2 (Q9GZQ4 whole entry): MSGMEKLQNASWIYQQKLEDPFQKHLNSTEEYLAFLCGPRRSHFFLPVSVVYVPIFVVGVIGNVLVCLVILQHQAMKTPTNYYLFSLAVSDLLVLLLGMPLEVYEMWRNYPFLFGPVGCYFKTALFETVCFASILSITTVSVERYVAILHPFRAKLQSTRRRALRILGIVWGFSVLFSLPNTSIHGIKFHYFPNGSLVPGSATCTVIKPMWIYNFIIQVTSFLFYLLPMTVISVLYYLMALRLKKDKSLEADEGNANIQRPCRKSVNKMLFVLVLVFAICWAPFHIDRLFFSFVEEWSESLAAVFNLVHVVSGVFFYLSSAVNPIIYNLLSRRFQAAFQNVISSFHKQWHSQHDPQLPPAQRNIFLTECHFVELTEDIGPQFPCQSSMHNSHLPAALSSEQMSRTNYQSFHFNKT

mouse NMUR1-ATG = target: T2, mouse NMUR1-ATG
mouse NMUR1-CTG = target: T3, mouse NMUR1-CTG
mouse NMUR2 = mouse NMUR2 (mouse, UniProt Q8BZ39 1-395)
Sequence of mouse NMUR2 (Q8BZ39 whole entry): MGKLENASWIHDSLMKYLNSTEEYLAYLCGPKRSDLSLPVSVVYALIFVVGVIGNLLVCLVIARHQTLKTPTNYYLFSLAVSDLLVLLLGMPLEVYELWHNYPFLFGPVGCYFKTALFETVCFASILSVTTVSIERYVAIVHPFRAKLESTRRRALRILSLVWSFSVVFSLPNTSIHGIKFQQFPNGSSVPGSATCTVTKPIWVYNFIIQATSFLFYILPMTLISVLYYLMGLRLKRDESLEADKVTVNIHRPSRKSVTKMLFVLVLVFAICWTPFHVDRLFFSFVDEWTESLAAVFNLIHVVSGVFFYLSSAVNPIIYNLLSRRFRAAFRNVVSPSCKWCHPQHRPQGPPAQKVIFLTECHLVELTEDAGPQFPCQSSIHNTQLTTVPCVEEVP

rat NMUR1-ATG = target: T4, rat NMUR1-ATG
rat NMUR2 = rat NMUR2 (rat, UniProt Q9ESQ4 1-395)
Sequence of rat NMUR2 (Q9ESQ4 whole entry): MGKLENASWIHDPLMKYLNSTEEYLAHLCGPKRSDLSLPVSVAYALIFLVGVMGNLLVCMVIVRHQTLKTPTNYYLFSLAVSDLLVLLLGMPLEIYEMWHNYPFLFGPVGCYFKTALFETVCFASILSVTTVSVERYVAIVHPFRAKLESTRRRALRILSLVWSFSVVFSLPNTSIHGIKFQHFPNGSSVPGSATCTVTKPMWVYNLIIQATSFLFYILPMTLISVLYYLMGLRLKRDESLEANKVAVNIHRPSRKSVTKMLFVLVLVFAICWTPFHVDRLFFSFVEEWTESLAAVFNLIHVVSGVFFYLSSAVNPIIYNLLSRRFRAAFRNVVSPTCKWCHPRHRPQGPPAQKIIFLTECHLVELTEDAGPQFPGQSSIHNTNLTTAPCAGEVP

rat NMUR1-TTG = target: T5, rat NMUR1-TTG

Row | % Activity (FLIPR) (human NMUR1) [%] | EC50 (FLIPR) (human NMUR1) [nM] | % Activity (FLIPR) (human NMUR2) [%] | EC50 (FLIPR) (human NMUR2) [nM] | % Activity (FLIPR) (mouse NMUR1-ATG) [%] | EC50 (FLIPR) (mouse NMUR1-ATG) [nM] | % Activity (FLIPR) (mouse NMUR1-CTG) [%] | EC50 (FLIPR) (mouse NMUR1-CTG) [nM] | % Activity (FLIPR) (mouse NMUR2) [%] | EC50 (FLIPR) (mouse NMUR2) [nM] | % Activity (FLIPR) (rat NMUR1-ATG) [%] | EC50 (FLIPR) (rat NMUR1-ATG) | % Activity (FLIPR) (rat NMUR2) [%] | EC50 (FLIPR) (rat NMUR2) [nM] | % Activity (FLIPR) (rat NMUR1-TTG) [%] | EC50 (FLIPR) (rat NMUR1-TTG) [nM] | Binder
1 | 94.4 | 50.6 | 94.3 | 91.1 | 95 | 45.7 | 71.7 | 1000 | 100 | 19 | 100 | 9.7 nM | 100 | 4.5 | – | – | Ac-C((PEG)2 40 kDa)FRVDEEFQSPFASQSRGYFLFRPRN-NH2 [NMU9]
2 | 95.7 | 104 | 0 | > 1000 | 60.8 | 584 | 24.8 | > 1000 | 0 | > 1000 | – | 240 nM and 133 nM | – | – | 36.7 | > 1000 | Ac-C((PEG)2 40 kDa)FRVDEEFQSPFASQSRGYF[dA]WRPRN-NH2 [NMU14]
3 | 26.6 | 1000 | 31.3 | 1000 | 76.8 | 173 | 69.2 | 1000 | 70.5 | 1000 | 80.1 | 201 nM | 97.4 | 41.5 | – | – | Ac-C(Cholesteroyl)FRVDEEFQSPFASQSRGYFLFRPRN-NH2 [NMU10]
4 | 83 | 168 | 98.8 | 44.1 | 100 | 10.2 | 100 | 60.3 | 100 | 18.8 | 99.6 | 20.1 nM | 96.4 | 37.8 | 93.5 | 81 | Palmitoyl-C((PEG)2 40 kDa)FRVDEEFQSPFASQSRGYFLFRPRN-NH2 [NMU25]
5 | 100 | 5 | 99.8 | 1.5 | 100 | 1.2 | 117 | 2.9 | 100 | 0.5 | 100 | 0.9 nM | 100 | 1.2 | 105 | 4.9 | Ac-C(Succinimide(1-Et,3-yl))ASQSRGYFLFRPRN-NH2 (SMILES CCN1C(=O)CC(SC[C@H](NC(C)=O)C(=O)N[C@@H](C)C(=O)N[C@@H](CO)C(=O)N[C@@H](CCC(N)=O)C(=O)N[C@@H](CO)C(=O)N[C@@H](CCCNC(=N)N)C(=O)NCC(=O)N[C@@H](Cc2ccc(O)cc2)C(=O)N[C@@H](Cc2ccccc2)C(=O)N[C@@H](CC(C)C)C(=O)N[C@@H](Cc2ccccc2)C(=O)N[C@@H](CCCNC(=N)N)C(=O)N2CCC[C@H]2C(=O)N[C@@H](CCCNC(=N)N)C(=O)N[C@@H](CC(N)=O)C(N)=O)C1=O) [NMU17]
